Data from the supplement of paper PMC9732359.
± gives the uncertainty stated by the source.

Experiment: protein stability index of a GFP-peptide fusion (yeast GPS) (PSI 1-4); higher = more stable; sorted into four equal gates, so the index is relative within each strain
How it was run: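 Peptides tiling yeast proteins in 17-residue segments were fused downstream of GFP, with Cherry expressed from the same plasmid. As a pooled library in yeast, mid-log cultures grown in leucine-free medium were sorted into four equal gates by GFP/Cherry fluorescence ratio. Gate plasmids were PCR-amplified and Illumina-sequenced, and barcodes linked reads to strains. Each peptide received a protein stability index equal to the sum of each gate's read frequency times its gate number.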

Sequence	protein stability index (doa10∆)	protein stability index (pdr5∆)	protein stability index (san1∆)	protein stability index (ubr1∆)
RVVYLKHLEDNTLLVTG [RPL6B]	1.89 ± 0.29	1.12 ± 0.095	1.15 ± 0.2	1.16 ± 0.2
YATKLSKFTKIPPTFDK [MED4]	3.08 ± 0.089	3.28 ± 0.084	3.29 ± 0.08	2.87 ± 0.14
PGSVEEVDKSKLITTYI [YDL116W/NUP84]	3.39 ± 0.18	3.33 ± 0.26	–	3.42 ± 0.18
CIKKIMENNEPAMAMED [SRB8]	3.12 ± 0.072	3.15 ± 0.079	3.13 ± 0.059	3.08 ± 0.069
EAIETCKNFEKTQLGST [GAL11]	2.51 ± 0.13	3.1 ± 0.19	–	3.36 ± 0.24
KVKLFHGILDDLETSLS [MED2]	3.17 ± 0.084	3.09 ± 0.075	3.14 ± 0.072	3.36 ± 0.055
VKKILPLYARYINVNPQ [ECM29]	2.43 ± 0.056	2.15 ± 0.051	3.06 ± 0.051	2.72 ± 0.04
QWIKFLLHTLYLRPASA [SSN8]	1.81 ± 0.051	1.59 ± 0.042	1.4 ± 0.073	1.72 ± 0.035
EQWITIESQMRDLILTE [PRP8]	2.78 ± 0.088	3.1 ± 0.092	3.08 ± 0.073	3.14 ± 0.077
LVRYGLAEKVEKASRQQ [RPS24A]	–	3.33 ± 0.11	3.38 ± 0.098	3.19 ± 0.19
HQNESSAASIPPQQTYH [RPN4]	2.57 ± 0.054	2.89 ± 0.074	2.53 ± 0.066	2.69 ± 0.057
NKLGNKRLTEDERIEKE [CDC53]	2.38 ± 0.15	3.13 ± 0.095	2.31 ± 0.059	2.42 ± 0.11
KDWTDTFVYILEKLIFD [SRB8]	2.39 ± 0.067	2.72 ± 0.058	2.73 ± 0.074	1.93 ± 0.052
EVLNRVASRHPSESEHP [YDL116W/NUP84]	2.94 ± 0.15	3.17 ± 0.11	2.99 ± 0.084	3.24 ± 0.075
KKFDISNDNLDLISEIL [MED1]	2.77 ± 0.067	2.89 ± 0.058	2.84 ± 0.061	3 ± 0.049
AVFYTPKELGGLGMISA [PRP8]	3.43 ± 0.13	2.33 ± 0.13	2.4 ± 0.1	2.29 ± 0.24
AGGPDMTTPQNISSSQQ [DSN1]	2.83 ± 0.044	3.04 ± 0.04	2.83 ± 0.037	2.93 ± 0.04
DGLGNVVDFTSLPEELK [YMR129W/POM152]	3.4 ± 0.096	3.47 ± 0.1	3.3 ± 0.046	3.42 ± 0.095
MINRLLLCALDRKDQDD [RPB2]	1.86 ± 0.16	3.11 ± 0.1	2.11 ± 0.17	2.97 ± 0.067
SRYEPKVFDCGDNIVMS [PRE7]	2.49 ± 0.12	2.78 ± 0.11	2.89 ± 0.11	2.06 ± 0.23
KSIQDIVGLATLIVNTD [SRP21]	2.85 ± 0.054	3.05 ± 0.05	2.93 ± 0.039	2.97 ± 0.037
TPSNIRSLCEVLVYDDK [RPC34]	1.7 ± 0.077	1.84 ± 0.078	1.26 ± 0.11	1.59 ± 0.086
GSSKPAFSFGAKPDEKK [YJL041W/NSP1]	3.19 ± 0.17	3.18 ± 0.14	–	3.29 ± 0.17
ELVFSKGVYLILSEILC [YML103C/NUP188]	1.93 ± 0.049	1.54 ± 0.048	1.71 ± 0.07	1.51 ± 0.026
VSALDKCIKYSEKLITK [ECM29]	3.18 ± 0.14	2.15 ± 0.1	1.94 ± 0.12	1.92 ± 0.093
KTIVTGGNGPEDFQQHE [RPO26]	3.29 ± 0.069	3.33 ± 0.055	3.32 ± 0.056	3.31 ± 0.039
KLLNDLALENGEITKTE [NUT1]	3.13 ± 0.15	3.09 ± 0.22	2.78 ± 0.2	3.18 ± 0.086

Sequence	protein stability index (doa10∆)	protein stability index (pdr5∆)	protein stability index (san1∆)	protein stability index (ubr1∆)
GTSTTHGSISPQEESVS [SIR3]	2.14 ± 0.043	2.56 ± 0.045	2.43 ± 0.053	2.48 ± 0.033
PRRDGERKRKSVRGAIV [RPS6A]	3.16 ± 0.099	3.29 ± 0.075	3.33 ± 0.072	3.05 ± 0.087
IEITNSNDLCSQIFDQL [SRB8]	2.67 ± 0.057	2.96 ± 0.074	2.69 ± 0.059	2.74 ± 0.043
VKYASPNLNMKYRKRQL [FAS2]	3.6 ± 0.14	3.19 ± 0.09	3.02 ± 0.093	2.88 ± 0.068
TQLQICLDQMTEQFCAT [SRB7]	2.74 ± 0.063	2.88 ± 0.065	2.54 ± 0.08	2.52 ± 0.052
GFERLTVNEPQMSDKHA [SRB7]	3.06 ± 0.12	3.36 ± 0.082	3.25 ± 0.14	3.16 ± 0.051
GCSKICDLSSKFNKSKA [YCS4]	3.08 ± 0.087	2.82 ± 0.093	3.16 ± 0.045	2.99 ± 0.057
IQEQRVKDKQSKVSDDS [RPN8]	1.97 ± 0.11	2.79 ± 0.13	–	2.92 ± 0.13
KRKWSYVLYAKIVVLSR [RRP43]	1.82 ± 0.06	2.36 ± 0.064	1.87 ± 0.11	2.21 ± 0.056
QTWSYLSLYSTDLENSS [ECM29]	2.41 ± 0.064	2.25 ± 0.052	2.66 ± 0.05	2.76 ± 0.049
LSGSISERIVDCIIRLP [FAS1]	1.35 ± 0.092	1.16 ± 0.09	1.23 ± 0.27	1.85 ± 0.046
AALIASKVYYNLGEYES [RPN2]	1.88 ± 0.077	1.6 ± 0.066	1.33 ± 0.067	1.69 ± 0.051
ASVYPEYALPKTYNKLH [RPS26A]	2.92 ± 0.076	2.51 ± 0.053	2.79 ± 0.059	2.71 ± 0.031
LRQQQQQQDQPEQSEQP [RPN10]	3.21 ± 0.09	3.28 ± 0.076	2.74 ± 0.081	3.17 ± 0.064
DDHNGEVWSVSWNLTGT [YGL100W/SEH1]	2.73 ± 0.069	3.04 ± 0.073	2.64 ± 0.096	2.73 ± 0.085
PSDMVIPDHLAELIPEL [SNF12]	3.09 ± 0.08	3 ± 0.069	2.88 ± 0.11	2.79 ± 0.042
VPPIASPQQFLRAHTDD [PRE2]	2.02 ± 0.068	2.72 ± 0.063	2.17 ± 0.11	2.6 ± 0.087
PPPPPPPGYEIEELDNP [PRP8]	2.87 ± 0.046	2.98 ± 0.04	3.04 ± 0.048	3.03 ± 0.033
FGAKSDEKKDSDSSKPA [YJL041W/NSP1]	3.04 ± 0.074	3.21 ± 0.099	3.24 ± 0.07	3.04 ± 0.086
PQDLTFNAGSNPPSYQS [RPB7]	2.96 ± 0.17	2.99 ± 0.11	3.1 ± 0.17	2.86 ± 0.096
NKYANNDFANNLPKEGD [CSL4]	3.14 ± 0.067	3 ± 0.056	2.9 ± 0.065	2.4 ± 0.071
RKHKRVSPNAAPRQEIS [YAR002W/NUP60]	2.92 ± 0.08	2.89 ± 0.056	2.92 ± 0.046	2.71 ± 0.063
ADAQIQRETYDSNESDD [YLR335W/NUP2]	2.07 ± 0.22	3.38 ± 0.21	–	2.66 ± 0.21
TVIRGNSIISLEALDAI [SMX2]	2.79 ± 0.075	2.43 ± 0.09	2.15 ± 0.11	2.57 ± 0.055
PKKALKVKAGVRSANED [RRP43]	2.84 ± 0.1	2.35 ± 0.088	2.81 ± 0.069	2.41 ± 0.051
NIWGTVRTNRFDIIEES [ECM29]	2.23 ± 0.23	3.35 ± 0.12	2.54 ± 0.11	2.98 ± 0.12
